Measured values published in patent publication US20250276070A1.

Target: hFcRn/β2-microglobulin complex (human) (UniProt P55899)
Experiment: BLI, His-tagged hFcRn/b2m on Ni-NTA, pH 5.6

fold higher affinity than the IgG1 control: > 1000 fold
Substance: T-01 MB IgG1 I253V
